In FireProtDB (doi:10.1007/s00249-013-0926-9):

B1: Photosystem II lipoprotein Psb27, P74367 (parent)
chain: MSFLKNQLSRLLALILVVAIGLTACDSGTGLTGNYSQDTLTVIATLREAIDLPQDAPNRQEVQDTARGQINDYISRYRRKGDAGGLKSFTTMQTALNSLAGYYTSYGARPIPEKLKKRLQLEFTQAERSIERGV

Variants of: B1
Settings: Synechocystis sp. (strain ATCC 27184 / PCC 6803 / Kazusa); pH 7; Thermal; CD; Sodium phosphate Tris HCl 20 mM; transition: 2; reversible: Yes; structure 2KMF; whole UniProt chain shown

Variant | Tm [°C]
D38A | 41.9
E127R | 56.1
P110G I111G P112G | 43.3
C25S | 58.2
P110G P112G | 49.2
R118E | 56.6
R78E | 57
Y102H | 56.3
R132E | 60.2
E122R | 54.4
